Numbering of substitutions follows the chain as printed. Numbered stars: 1 amine (or outer) side, 2 acyl side, 3 side chain; on linkers, the order of the positions; unused ones are H or OH. Square brackets hold non-standard residues; d marks the D form. Side chains are listed from the residue outwards. Ends that are not written are not given here. * marks the point of attachment. C18 diacid = O=C(O)CCCCCCCCCCCCCCCCC(=O)*; γGlu = O=C(O)[C@H](CCC(=O)[*:2])N[*:1]; AEEA = NCCOCCOCC(=O)O; Aib = CC(C)(N)C(=O)O
T1: human gastric inhibitory peptide receptor (GIPR) (human, UniProt P48546 22-466)
T1 sequence (looked up): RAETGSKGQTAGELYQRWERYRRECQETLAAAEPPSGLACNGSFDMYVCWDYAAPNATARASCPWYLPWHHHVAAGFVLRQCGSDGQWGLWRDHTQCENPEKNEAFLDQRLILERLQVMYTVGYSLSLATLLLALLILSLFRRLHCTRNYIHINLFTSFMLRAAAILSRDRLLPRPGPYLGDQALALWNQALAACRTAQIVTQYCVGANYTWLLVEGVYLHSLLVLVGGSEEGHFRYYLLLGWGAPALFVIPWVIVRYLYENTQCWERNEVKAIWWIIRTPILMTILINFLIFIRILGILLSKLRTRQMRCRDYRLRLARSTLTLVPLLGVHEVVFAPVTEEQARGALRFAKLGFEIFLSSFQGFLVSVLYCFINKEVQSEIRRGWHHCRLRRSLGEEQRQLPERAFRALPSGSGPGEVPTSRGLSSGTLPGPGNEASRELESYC

B1: Example 300 (peptide)
peptide: YXEGTFTSDYSIXLDKKAQXAFIEYLIEGGPSSG
modifications: Aib2, αMeL13, (2-[2-(2-Amino-ethoxy)-ethoxy]-acetyl)2-(γ-Glu)-CO-(CH2)16-CO2H on K17, Aib20, C-terminal NH2
B2: Example 308 (peptide)
peptide: B1 peptide with F6X, X13L, A21E
modifications: Aib2, αMeF6, (2-[2-(2-Amino-ethoxy)-ethoxy]-acetyl)2-(γ-Glu)-CO-(CH2)16-CO2H on K17, Aib20, C-terminal NH2
B3: Example 307 (peptide)
peptide: B1 peptide with F6X, X13L, K16E
modifications: Aib2, αMeF6, (2-[2-(2-Amino-ethoxy)-ethoxy]-acetyl)2-(γ-Glu)-CO-(CH2)16-CO2H on K17, Aib20, C-terminal NH2
B4: Example 301 (peptide)
peptide: B1 peptide with F6X, X13L
modifications: Aib2, αMeF6, (2-[2-(2-Amino-ethoxy)-ethoxy]-acetyl)2-(γ-Glu)-CO-(CH2)16-CO2H on K17, Aib20, C-terminal NH2
B5: Example 304 (peptide)
peptide: B1 peptide with A21E
modifications: Aib2, αMeL13, (2-[2-(2-Amino-ethoxy)-ethoxy]-acetyl)2-(γ-Glu)-CO-(CH2)16-CO2H on K17, Aib20, C-terminal NH2
B6: Example 312 (peptide)
peptide: B1 peptide with F6X, X13L, A21E
modifications: Aib2, αMeF(2F)6, (2-[2-(2-Amino-ethoxy)-ethoxy]-acetyl)2-(γ-Glu)-CO-(CH2)16-CO2H on K17, Aib20, C-terminal NH2
B7: Example 306 (peptide)
peptide: B1 peptide with A21E, E28A
modifications: Aib2, αMeL13, (2-[2-(2-Amino-ethoxy)-ethoxy]-acetyl)2-(γ-Glu)-CO-(CH2)16-CO2H on K17, Aib20, C-terminal NH2
B8: Example 302 (peptide)
peptide: B1 peptide with F6X, X13L
modifications: Aib2, αMeF(2F)6, (2-[2-(2-Amino-ethoxy)-ethoxy]-acetyl)2-(γ-Glu)-CO-(CH2)16-CO2H on K17, Aib20, C-terminal NH2
B9: Example 310 (peptide)
peptide: B1 peptide with F6X, X13L, A21E, E28A
modifications: Aib2, αMeF6, (2-[2-(2-Amino-ethoxy)-ethoxy]-acetyl)2-(γ-Glu)-CO-(CH2)16-CO2H on K17, Aib20, C-terminal NH2
B10: Example 311 (peptide)
peptide: B1 peptide with F6X, X13L, K16E
modifications: Aib2, αMeF(2F)6, (2-[2-(2-Amino-ethoxy)-ethoxy]-acetyl)2-(γ-Glu)-CO-(CH2)16-CO2H on K17, Aib20, C-terminal NH2
B11: Example 314 (peptide)
peptide: B1 peptide with F6X, X13L, A21E, E28A
modifications: Aib2, αMeF(2F)6, (2-[2-(2-Amino-ethoxy)-ethoxy]-acetyl)2-(γ-Glu)-CO-(CH2)16-CO2H on K17, Aib20, C-terminal NH2
B12: Example 303 (peptide)
peptide: B1 peptide with K16E
modifications: Aib2, αMeL13, (2-[2-(2-Amino-ethoxy)-ethoxy]-acetyl)2-(γ-Glu)-CO-(CH2)16-CO2H on K17, Aib20, C-terminal NH2
B13: Example 313 (peptide)
peptide: B1 peptide with F6X, X13L, E28A
modifications: Aib2, αMeF(2F)6, (2-[2-(2-Amino-ethoxy)-ethoxy]-acetyl)2-(γ-Glu)-CO-(CH2)16-CO2H on K17, Aib20, C-terminal NH2
B14: Example 309 (peptide)
peptide: B1 peptide with F6X, X13L, E28A
modifications: Aib2, αMeF6, (2-[2-(2-Amino-ethoxy)-ethoxy]-acetyl)2-(γ-Glu)-CO-(CH2)16-CO2H on K17, Aib20, C-terminal NH2
B15: Example 299 (peptide)
peptide: Y[Aib]EGTFTSDYSILLDKK([AEEA-AEEA-γGlu-C18 diacid])AQ[Aib]AFLEYLIEGGPSSG-NH2
modifications: N-terminus assumed
SMILES: CC[C@H](C)[C@H](NC(=O)[C@H](CC(C)C)NC(=O)[C@H](Cc1ccc(O)cc1)NC(=O)[C@H](CCC(=O)O)NC(=O)[C@H](CC(C)C)NC(=O)[C@H](Cc1ccccc1)NC(=O)[C@H](C)NC(=O)C(C)(C)NC(=O)[C@H](CCC(N)=O)NC(=O)[C@H](C)NC(=O)[C@H](CCCCNC(=O)COCCOCCNC(=O)COCCOCCNC(=O)CC[C@H](NC(=O)CCCCCCCCCCCCCCCCC(=O)O)C(=O)O)NC(=O)[C@H](CCCCN)NC(=O)[C@H](CC(=O)O)NC(=O)[C@H](CC(C)C)NC(=O)[C@H](CC(C)C)NC(=O)[C@@H](NC(=O)[C@H](CO)NC(=O)[C@H](Cc1ccc(O)cc1)NC(=O)[C@H](CC(=O)O)NC(=O)[C@H](CO)NC(=O)[C@@H](NC(=O)[C@H](Cc1ccccc1)NC(=O)[C@@H](NC(=O)CNC(=O)[C@H](CCC(=O)O)NC(=O)C(C)(C)NC(=O)[C@@H](N)Cc1ccc(O)cc1)[C@@H](C)O)[C@@H](C)O)[C@@H](C)CC)C(=O)N[C@@H](CCC(=O)O)C(=O)NCC(=O)NCC(=O)N1CCC[C@H]1C(=O)N[C@@H](CO)C(=O)N[C@@H](CO)C(=O)NCC(N)=O
B16: Example 298 (peptide)
peptide: Y[Aib]EGTFTSDYSILLDKK([AEEA-AEEA-γGlu-C18 diacid])AQ[Aib]AFVEYLIEGGPSSG-NH2
modifications: N-terminus assumed
SMILES: CC[C@H](C)[C@H](NC(=O)[C@H](CC(C)C)NC(=O)[C@H](Cc1ccc(O)cc1)NC(=O)[C@H](CCC(=O)O)NC(=O)[C@@H](NC(=O)[C@H](Cc1ccccc1)NC(=O)[C@H](C)NC(=O)C(C)(C)NC(=O)[C@H](CCC(N)=O)NC(=O)[C@H](C)NC(=O)[C@H](CCCCNC(=O)COCCOCCNC(=O)COCCOCCNC(=O)CC[C@H](NC(=O)CCCCCCCCCCCCCCCCC(=O)O)C(=O)O)NC(=O)[C@H](CCCCN)NC(=O)[C@H](CC(=O)O)NC(=O)[C@H](CC(C)C)NC(=O)[C@H](CC(C)C)NC(=O)[C@@H](NC(=O)[C@H](CO)NC(=O)[C@H](Cc1ccc(O)cc1)NC(=O)[C@H](CC(=O)O)NC(=O)[C@H](CO)NC(=O)[C@@H](NC(=O)[C@H](Cc1ccccc1)NC(=O)[C@@H](NC(=O)CNC(=O)[C@H](CCC(=O)O)NC(=O)C(C)(C)NC(=O)[C@@H](N)Cc1ccc(O)cc1)[C@@H](C)O)[C@@H](C)O)[C@@H](C)CC)C(C)C)C(=O)N[C@@H](CCC(=O)O)C(=O)NCC(=O)NCC(=O)N1CCC[C@H]1C(=O)N[C@@H](CO)C(=O)N[C@@H](CO)C(=O)NCC(N)=O

What was measured:
[1] = target: T1, human gastric inhibitory peptide …; assay: cell-based or functional assay
[2] = target: human GLP-1 receptor (GLP-1R) (human, UniProt P43220 24-463); assay: cell-based or functional assay

Binder | hGIPR cAMP EC50 ratio [1] | hGIPR cAMP Rel EC50 [1] [nM] | hGLP1R cAMP EC50 ratio [2] | hGLP1R cAMP Rel EC50 [2] [nM]
B1 | 5.38 | 0.0234 | 0.636 | 0.0867
B2 | 4.06 | 0.0262 | 1.45 | 0.0392
B3 | 2.48 | 0.0285 | 1.29 | 0.0437
B4 | 4.11 | 0.0346 | 1.61 | 0.0441
B5 | 2.68 | 0.0296 | 0.481 | 0.191
B6 | 4.76 | 0.0207 | 1.53 | 0.0262
B7 | 3.97 | 0.0191 | 0.912 | 0.0711
B8 | 3.78 | 0.0308 | 1.96 | 0.0275
B9 | 5.56 | 0.0176 | 1.43 | 0.0283
B10 | 3.5 | 0.0334 | 1.04 | 0.0393
B11 | 2.81 | 0.029 | 1.48 | 0.029
B12 | 4.2 | 0.0254 | 0.602 | 0.104
B13 | 2.87 | 0.0233 | 0.867 | 0.0388
B14 | 1.64 | 0.0389 | 1.27 | 0.033
B15 | 0.146 | 0.932 | 0.0244 | 2.54
B16 | 2.87 | 0.043 | 0.507 | 0.0957
